Experimental data reported in IntAct's records for PubMed 20118266.

B1: Flagellar biosynthesis protein FlhA (Salmonella typhimurium), P40729 (parent)
chain: MANLVAMLRLPSNLKSTQWQILAGPILILLILSMMVLPLPAFILDLLFTFNIALSIMVLLVAMFTQRTLDFAAFPTILLFTTLLRLALNVASTRIILMEGHTGAAAAGKVVEAFGHFLVGGNFAIGIVVFIILVIINFMVITKGAGRIAEVGARFVLDGMPGKQMAIDADLNAGLIGEDEAKKRRSEVTQEADFYGSMDGASKFVRGDAIAGILIMVINVVGGLLVGVLQHGMSIGSAAESYTLLTIGDGLVAQIPALVISTAAGVIVTRVSTDQDVGEQMVGQLFSNPRVMLLAAAVLGLLGMVPGMPNLVFLLFTAALLGLAWWLRGREEKAPEEPQPVKMPENNSVVEATWNDVQLEDSLGMEVGYRLIPMVDFQQDGELLGRIRSIRKKFAQDMGFLPPVVHIRDNMDLQPARYRILMKGVEIGSGDAYPGRWLAINPGTAAGTLPGEKTVDPAFGLDAIWIESALKEQAQIQGFTVVEASTVVATHLNHLIGQFSAELFGRQEAQQLLDRVSQEMPKLTEDLVPGVVTLTTLHKVLQNLLAEKVPIRDMRTILETLAEHAPLQSDPHELTAVVRVALGRAITQQWFPGNEEVQVIGLDTALERLLLQALQGGGGLEPGLADRLLAQTQEALSRQEMLGAPPVLLVNHALRPLLSRFLRRSLPQLVVLSNLELSDNRHIRMTATIGGK
B2: Flagellar biosynthesis protein FlhA (Salmonella typhimurium), P40729 (parent)
chain: B1 chain
partner: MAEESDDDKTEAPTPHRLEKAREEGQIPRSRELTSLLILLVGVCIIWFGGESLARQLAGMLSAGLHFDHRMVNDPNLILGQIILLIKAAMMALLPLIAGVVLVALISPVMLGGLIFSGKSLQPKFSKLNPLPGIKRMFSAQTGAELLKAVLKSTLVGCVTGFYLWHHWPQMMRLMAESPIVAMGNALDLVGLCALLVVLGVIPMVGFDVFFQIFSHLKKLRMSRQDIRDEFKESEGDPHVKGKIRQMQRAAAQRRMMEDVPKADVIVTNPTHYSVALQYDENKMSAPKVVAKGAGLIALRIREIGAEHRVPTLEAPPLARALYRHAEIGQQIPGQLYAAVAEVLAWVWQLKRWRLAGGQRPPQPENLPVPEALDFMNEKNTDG

Variants of: B1
Conditions: with flij_salty fliJ

Variant	effect of a mutation on the interaction
G368C	increasing interaction strength

Variants of: B2
Conditions: with flhb_salty flhB

Variant	effect of a mutation on the interaction
G368C	increasing interaction strength
